Results reported in the supplement of paper PMC12764529.
± gives the half width of the 95% confidence interval.

Assays:
[1] = folding stability dG unfold from chymotrypsin proteolysis; higher = more stable
Procedure, shortened: (§1)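 Sequencing followed digestion of designed mini-proteins with trypsin and chymotrypsin, each at 11 concentrations in threefold dilutions together with a no-protease condition. The mini-proteins were under 80 residues, had no cysteine, sat in a PA-tagged cDNA display construct, and were kept only if AlphaFold2 dimer inter-PAE was above 15. From the counts, Bayesian fitting gave K50, and unfolding free energy was derived against a sequence-predicted unfolded-state K50 and a shared folded-state K50, per protease or combined.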

[2] = folding stability dG unfold from trypsin proteolysis; higher = more stable
Procedure, shortened: as §1

[3] = folding stability dG unfold (combined trypsin and chymotrypsin); higher = more stable
Procedure, shortened: as §1

Sequence	folding stability dG unfold [1] [kcal/mol]	folding stability dG unfold [2] [kcal/mol]	folding stability dG unfold [3] [kcal/mol]
SAGGQKTETFEFAFRKPDGSLYLVKITLIEKLPNEPNVYIAKVEVYKLNLVTGKPEKVGEFEVLLNLSAGGS [r8_65_TrMRF]	5.04 ± 0.15	3.4 ± 0.13	4.96 ± 0.14
SAGGSAGGSAGGDNRLPIPVKTPVVVVPADEAREEIRATLPPDAYRVEEERGDYVTISLGSAGGSAGGSAGG [r7_670_JUSTAS]	1.05 ± 0.022	0.481 ± 0.044	0.847 ± 0.049
SAGGSAALPIVEVLETEESSDGTVTILAKLEDGTVVTITVTVEVKPPPPPPPVDPANMSPERLAAVSAGGSA [r15_41_JUSTAS]	0.181 ± 0.07	0.998 ± 0.08	0.566 ± 0.19
SAGGSAGGSAGFFIRIEPPNGEKVHFPMPPNQLPELAEEFPGLKIDDIDEGNGWIWVEVPSAGGSAGGSAGG [r17_22_TrROS]	-0.453 ± 0.47	-0.0744 ± 0.23	-0.264 ± 0.35
SAGGSAGGSAGGNVIRVEKEPNTVVLYFPDGTYRVVEVEKKDESVKVLSEKVEPIVPGLLSAGGSAGGSAGG [r7_443_JUSTAS]	-0.177 ± 0.2	1.12 ± 0.024	0.702 ± 0.059
SAGGSAGGSARIYVTLPDGTVLEVEFEGEEEAERVAEEIEAELKEKGIEPKSITIEPVSPEEGSAGGSAGGS [r12_301_JUSTAS]	1.69 ± 0.075	0.723 ± 0.053	1.27 ± 0.16
SAGGSADIPSDWTVTPVSSSYDPATGTTTTEETVYDSKGNPQYKITVTTTFDPTTGTTTTTVTYNPSAGGSA [r15_1028_JUSTAS]	2.054 ± 0.018	2.37 ± 0.066	2.17 ± 0.058
SMVTVETRPEEVLPDAEGRLRRVTVVITFPDGKTLTVDMEFPPDVSDEEVEERLRALVEELGVESIELLGSA [r9_1203_JUSTAS]	1.81 ± 0.086	3.7 ± 0.11	2.99 ± 0.17
SAGMVAEEARRRASPEELAAEEAPPRPPPPVTVVTVPREVAPEVLAALAAAEDVEVEERGDELVIRVVGSAG [r14_7_JUSTAS]	0.559 ± 0.1	-0.583 ± 0.39	0.299 ± 0.19
SAGGSAGGSAGGMEVKVEEFVENGKPVVREFYPDSIKVTTYTFDENGNVTEKKEYVIPKESAGGSAGGSAGG [r7_722_JUSTAS]	0.92 ± 0.15	0.413 ± 0.061	0.691 ± 0.17
SAGKFKIVKVEIKDGKITITVKNEKTGELVKKEITFDKKTKKLKIKLYNKNGKLIKEETKTLSLEELKKSAG [r5_308_TrROS_Hall]	2.66 ± 0.071	2.06 ± 0.093	2.49 ± 0.096
SAGGKQEIEIPIPYKNGMPFRIRIEWEEDPNKPRLRIPIWAPNMPASNFAEEIKKELPPDIKDVEIWPSAGG [r13_404_TrROS]	0.0456 ± 0.72	0.685 ± 0.2	0.0846 ± 0.64
SVEEFRELLPDAVIEAEPLSPDRLLIRLYVPEDPEKLNPLAERVRELAEEIERETGLPVLIEIIPVPPESSA [r9_1099_TrMRF]	1.27 ± 0.014	1.53 ± 0.033	1.41 ± 0.028
SAGGSAGGSAGKIEVTYNKENNTFTVKIVNKKTKKVITIKVKAKSKEDALKKVKELLEKLSAGGSAGGSAGG [r17_386_TrROS_Hall]	3.32 ± 0.078	2.79 ± 0.17	3.11 ± 0.19
SAGGSAGGKITLLDEEEIEEVAKELGIDPENIRVIKVENEIIAILSKAKPLTPEKLKEIVEKLKSAGGSAGG [r6_243_JUSTAS]	0.686 ± 0.029	1.06 ± 0.021	0.934 ± 0.055
SAGGSAGGSAGMLVYRTVVTTEVLETETTSFPTPEGPYVTTTTVTVKTTVTVEKLTPELLSAGGSAGGSAGG [r11_24_JUSTAS]	2.61 ± 0.041	2.67 ± 0.14	2.75 ± 0.2

Sequence	folding stability dG unfold [1] [kcal/mol]	folding stability dG unfold [2] [kcal/mol]	folding stability dG unfold [3] [kcal/mol]
SAGGSAGGGRRLLIEADSEELRELLEALPPEELKNVRVYGPGGVEFPAGEIEKYKYGPLLIEVPSAGGSAGG [r6_428_TrMRF]	0.756 ± 0.18	0.174 ± 0.099	0.669 ± 0.1
SAGGSAGGSAGGKVIVKEITINEDGTVTIKGEIFDENGELIAEAEFKFRLGDGGPIEFESAGGSAGGSAGGS [r10_484_TrMRF]	2.462 ± 0.021	2.18 ± 0.18	2.3 ± 0.16
SAGSPVLATLRTYDPVAKKWTESVYPVSDPEALIAEVAAELGVEVEVDPATGVATAPLPDGRLVVVTVVSAG [r5_937_JUSTAS]	1.56 ± 0.014	1.2 ± 0.036	1.45 ± 0.051
SAGGSAGGSETVTLELTLEDGRTLRIEFDPETQRLTVTFPDGSKQEIEVETLDDALAALLEALSAGGSAGGS [r12_866_TrROS_Hall]	3.81 ± 0.072	2.91 ± 0.11	3.6 ± 0.062
SAGGSAGGSAMTIEELAKKGYEIRIVGPDGKVRTFKVGESLEEIAEKLGLAPGAKIEIRKVSAGGSAGGSAG [r3_216_TrROS_Hall]	2.07 ± 0.027	1.48 ± 0.024	1.88 ± 0.049
SAGGDIKILSIQFMPPGWIMIVAEIPLENGEKWHISIMIRITPEARNHPPGQEYEFRIDINISIVPRSAGGS [r16_787_TrROS]	4.91 ± 0.41	3.5 ± 0.26	4.5 ± 0.32
SAGGSAGGSAGPEKMRIEDIEHERNPEDGRHTVKIKIPNGPDITFQFTDPEDLDDFKLEVSAGGSAGGSAGG [r11_711_TrROS]	0.334 ± 0.075	-0.274 ± 0.079	0.0382 ± 0.22
SAGGSAGGSAGGSTITISPEQPVEGLTIELDGKTIKVVSYTPEPKEGEPLLKVTVERLDSAGGSAGGSAGGS [r10_1098_JUSTAS]	-0.489 ± 0.33	-1.28 ± 0.86	-0.771 ± 0.81
SAGGDVKEFDSPEDLNKALPALKNGKEVHIRVEMRMPQPDPDGEPRQYPMEFWYTIKLKNGELEIEPISAGG [r13_835_TrROS]	0.988 ± 0.091	0.593 ± 0.071	0.827 ± 0.07
SAGGNDDNWRVIEFTFSPGNIKPEQIRSLLENAGADRITDVEVQRTPNSYTVTFYFPNGKPVEITIPSAGGS [r8_86_TrROS]	2.37 ± 0.1	1.65 ± 0.038	2.13 ± 0.13
SAGNIKIEVEELGPGWYVIKVEIPYDSPEQMLDMIKDIIRDFFGEPVKIDEVEIDPDEGWIEKTIRIPLSAG [r5_810_TrROS]	1.64 ± 0.07	1.58 ± 0.067	1.67 ± 0.12
SAGGSAGGSAGMKPGQKEEVKIPIMGMIPVDGRTFMIRFDITVKAPGAIKIELDIIPGFPSAGGSAGGSAGG [r11_551_TrROS]	4.73 ± 0.29	3.26 ± 0.16	4.23 ± 0.21
SAGGSAMKITYKPPSGETTVHPIPPGLTPEERRALAEELAKALQEKTGDPNVTVEFDPATGEITVASAGGSA [r15_33_JUSTAS]	-0.0618 ± 0.15	1.33 ± 0.034	0.84 ± 0.11
SAGGSAGGSAGSPLEEALAEARATGGPVTIRLPDGSEVVITVTEDEGELRVEVRSAAELGSAGGSAGGSAGG [r17_463_JUSTAS]	0.911 ± 0.042	0.99 ± 0.027	1 ± 0.099
SALPALLEAAEAGESGTFIPIVADPEAAAVLRAVLERLGFTLVSEEPVPAGARPVFVGVYYFDPVSGRNRSA [r9_498_TrMRF]	2.38 ± 0.17	1.1 ± 0.047	1.84 ± 0.091
